Laboratory results taken from patent US20040002450A1, “Y17 - isolated molecules comprising epitopes containing sulfated moieties, antibodies to such epitopes, and uses thereof” (priority 2000, published 2004).

Key:
[1] = tested on: MOLT-4 cells; assay: T-ALL (MOLT4) model in SCID mice; assay type: in vivo
Method: The in vivo mouse model for T-ALL uses SCID mice (Jackson Laboratories) injected with MOLT4 cells derived from a T cell leukemia patient.
In one experiment, SCID mice were pretreated with 100 mg/kg Cytoxan (CTX, Cyclophosphamid for injection, Mead Johnson). Eleven days after CTX injection, MOLT-4 cells were injected intravenously into the tail vein. Control mice were injected with PBS alone. One week post-MOLT-4 injection mice were injected with CONY1-Doxorubicin, which is a conjugate between scFv CON Y1 polypeptide, having KAK amino acid residues at its carboxy end and doxorubicin via a short organic linker; CONY1, which is a scFv antibody fragment derived from Y1 scFv in which the DNA sequences encoding the myc tag of Y1 were deleted and replaced with a DNA sequence encoding the amino acids lysine, alanine, lysine (KAK); or free Doxorubicin. The mice were injected three times per week for three weeks. […] (Table M).
Mice started to die 32 days post cell inoculation, and the surviving mice were sacrificed at this time. Bone marrow cells were analyzed by flow cytometry using anti-human CD44-FITC and Y1-Biotin/SAV-PE. Blood samples from several animals were monitored for platelet and white blood cell count. Livers were weighted and examined for appearance. Other organs were also examined for tumor appearance.
In a second experiment, SCID mice were i.v. injected with 2×10^7 MOLT-4 cells/mouse, 5 days post treatment with cyclophosphamide. Anti-cancer agents or PBS (negative control animals) were injected i.v. three times/week from day 5 post MOLT-4 cells injection and onward. On day 35, blood was drawn from the animals, the animals were sacrificed, and their livers were excised and weighed. In the untreated, PBS-treated MOLT-4 cell-bearing animals, the liver presented with a very massive tumor growth, and its size was increased 2-3-fold relative to PBS control uninfected animals. In this experiment, there were five treatment groups:
In parallel, portions of liver tissue were taken for histology and cell harvesting for FACS analysis. The survival rate of another group of treated animals was recorded relative to that of control untreated mice.
In a third experiment, using the identical SCID/MOLT-4 protocol, there were 6 groups: […]

[2] = tested on: KG-1 cells; assay: AML KG-1 model in SCID/NOD mice; assay type: in vivo
Method: The in vivo mouse model for human AML uses SCID/NOD mice (Jackson Laboratories) inoculated with KG-1 cells derived from a human AML cell line.
In a first experiment, NOD/SCID mice were pretreated with 100 mg/kg CYTOXAN®. Four days post CYTOXANT injection, KG-1 cells were injected intravenously into the tail vein of six groups of mice. (Table N, Groups 2 and 5-9). One group of mice (Table N, Group 1) was injected with PBS alone (control).
Beginning 19 days post KG-1 injection mice were treated with: CONY1, Doxorubicin, CONY1-Doxorubicin conjugate, or Mylotarg®. (Mylotarg® is a monoclonal antibody (anti CD33) conjugated chemically to calcheamicin recently approved by the FDA for treatment of AML patients age 60 and over in a first relapse.) Mice were treated once or three times per week for three weeks. […]
Mice were sacrificed from 60 to 65 days post cell injection. Bone marrow and blood samples were analyzed by flow cytometry using mouse anti human CD34-FITC (IQP 144F) (or anti CD44-FITC (MCA89F, Serotec)) and Y1-Biotin/SAV-PE. […]
An additional experiment was performed in which SCID-NOD mice were i.v. injected with 3×10^4 MOLT-4 cells/mouse 5 days post treatment with cyclophosphamide. […] Bone marrow was extracted and analyzed by FACS analysis using a commercially available antiCD44 antibody for the detection of MOLT-4 cells in the mice bone marrow cell population.

[3] = target: T1, GPIb (glycocalicin) derived from platelets (Homo sapiens, UniProt P07359); assay: ELISA to GC (glycocalicin), monomer versus dimer; assay type: binding
T1 construct: glycocalicin (soluble, extracellular fragment of GPIbα); from tissue; host or cells: human platelets
Method: An ELISA assay was performed to ascertain the differences in binding between the monomer (the Y1 scFv-also known as Y1-kak) and the dimer Y1-cys-kak (the cysteine dimer) for antigen GPIb (glycocalicin) derived from platelets. A polyclonal anti single chain antibody and/or a novel polyclonal anti-VL (derived from rabbits) and anti-rabbit HRP, were used to detect the binding to GPIb. […] For instance, to reach 0.8 OD units 12.8 μg/ml of monomer was used compared to only 0.1 μg/ml of dimer.
100 ml of purified glycocalicin was incubated in a 96 flat well maxisorp plates, overnight at 4 degrees celsius. The plate was washed with PBST (PBS+0.05% tween) 3 times, then […] of PBST-milk (PBST+2% Non fat milk), for 1 hr at room temperature. The plate was washed with PBST, and the monomer or dimer (100 ml) was added in PBST-milk at different concentrations for 1 hr at room temp. Then the plate was washed and anti-VL polyclonal (derived from immunized rabbits with VL derived from Y1) (1:100 diluted in PBST-milk) was added for an hour. The plate was washed and anti-rabbit HRP was added for an additional hour. The plate was washed 5 times and 100 μl TMB substrate was added for approximately 15 minutes then 100 μl of 0.5H2SO4 was added to stop the reaction. The optical density of the plate was measured at 450 nm in an ELISA reader.

[4] = mouse, in vivo
Method: The radioactive protein was then admixed with unlabeled CONY-1 to yield a solution of 75 μg/ml CONY-1 containing 2.5×10^6 CPM/ml in saline.
Male Balb-C mice were pretreated by intraperitoneal injection of 0.5 ml/mouse of 0.9% NaI. After 2 hours, the mice were injected intravenously with 0.2 ml of the labeled CONY-1 solution, resulting in a ^125I-CONY-1 dose of 15 μg (5×10^5 CPM) per mouse.
At various times after injection, blood was collected over EDTA, mice were sacrificed, and tissues were excised. Samples and organs were taken at 5, 15, and 30 minutes and at 1, 2, 4, 8, and 24 hours after injection. Two to four mice were used per time point. Plasma was separated and either counted for gamma radioactivity or subjected to precipitation with trichloroacetic acid (TCA). After centrifugation, TCA precipitates were subjected to gamma radioactivity counting. Liver, lung, kidney, spleen, and bone marrow samples were weighed and counted for gamma radioactivity. Plasma TCA precipitated radioactivity was plotted against time, and a two-compartment kinetics model was fitted. Organ/tissue total and specific radioactivity values were calculated.

[5] = tested on: KG-1 cells; assay: Radioreceptor binding assay with KG-1 cells; parameters: species or system human; settings: 2 ng/tube 125I-Y1-IgG tracer
Method: The assay system involved the use of radioactive ligands that were prepared by iodination with ^125I using chloramine T on the Y1-IgG construct or the Bolton-Hunter (CONY1) reagent. The assay tubes contained 5×10^6 KG-1 cells per 0.2 ml and a labeled tracer with varying amounts of unlabeled competitor, in PBS+0.1% BSA, pH 7.4. After one hour incubation with agitation at 4° C., the cells were thoroughly washed with cold buffer and taken for radioactivity counting.
For the radio receptor binding assay (RRA), 2 ng/tube of ^125I-Y1-IgG was used, and competition was performed with each of the three molecules. […] A rough estimate of the affinity of the Y1-IgG in this experiment is 2×10^−8 M. The corresponding affinity of the dimer is, therefore, 4×10^−8 M.
In a second RRA using labeled CONYL, a 100 ng/tube of ^125I-Y1-IgG was used, and competition was performed with each of the three molecules. […] A rough estimate of the affinity of CONY 1 in this experiment is 10^−6M. The corresponding affinity of the dimer is, therefore, 5×10^−8 M.

Molecule	liver weight versus free Doxorubicin-treated or untreated MOLT-4 mice ([1]; first experiment, three times per week for three weeks, sacrifice 32 days post inoculation)	survival ([1]; mice from three groups with continued treatment)	liver weights / tumor growth in the liver ([1]; second experiment, day 35, i.v. three times/week, scFv or conjugate 75 μg/mouse, Doxorubicin 0.1 mg/kg)	tumor growth (based on liver weights) ([1]; third experiment, scFv 75 μg/mouse, IgG 5 μg/mouse)	percentage of KG-1 cells in bone marrow (in words) ([2]; KG-1 cells incubated in vitro with scFv before injection (groups 3 and 4))	development of the malignancy / prevalence of bone marrow cancer (in words) ([2]; additional experiment, day 60, CONY1 scFv 75 μg/mouse three times/week, Mylotarg 7 μg/mouse once a week)	concentration used to reach 0.8 OD units [3] [µg/mL]	distribution between plasma and erythrocytes (in words) [4]	half-life of blood clearance, first compartment ([4]; iv) [h]	half-life of blood clearance, second compartment ([4]; iv) [h]	affinity relative to the full Y1 antibody [5]
CONY1: scFv derived from Y1 scFv in which the myc tag is replaced by lysine, alanine, lysine (KAK); SEQ ID NO: 204 (protein, listed as Homo sapiens) scFv: MKYLLPTAAAGLLLLAAQPAMAEVQLVESGGGVVRPGGSLRLSCAASGFTFDDYGMSWVRQAPGKGLEWVSGINWNGGSTGYADSVKGRFTISRDNAKNSLYLQMNSLRAEDTAVYYCARMRAPVIWGQGTLVTVSRGGGGSGGGGSGGGGSSELTQDPAVSVALGQTVRITCQGDSLRSYYASWYQQKPGQAPVLVIYGKNNRPSGIPDRFSGSSSGNTASLTITGAQAEDEADYYCNSRDSSGNHVVFGGGTKLTVLGAAAKAK	weighted significantly less	prolonged	markedly inhibited tumor growth in the liver	inhibited tumor growth	significantly lower percentage	no effect	12.8	did not adhere to erythrocytes	0.583	3.17	–
S-S Y1 dimer: Y1 sulfide bridge dimer compared with CONY1 and Y1-IgG in the radioreceptor assay (protein) scFv: MEVQLVESGGGVVRPGGSLRLSCAASGFTFDDYGMSWVRQAPGKGLEWVSGINWNGGSTGYADSVKGRFTISRDNAKNSLYLQMNSLRAEDTAVYYCARMRAPVIWGQGTLVTVSRGGGGSGGGGSGGGGSSELTQDPAVSVALGQTVRITCQGDSLRSYYASWYQQKPGQAPVLVIYGKNNRPSGIPDRFSGSSSGNTASLTITGAQAEDEADYYCNSRDSSGNHVVFGGGTKLTVLGGGGCKAK	–	–	–	–	–	–	–	–	–	–	twofold lower
